Data reported in publication PMC5359911.
pKd: −log10 of the molar value.

Columns and labels:
[1] = target: smooth muscle tropomyosin, purified α/β heterodimer of chicken gizzard Tpm1.4 and Tpm2.1 (chicken); test: SPR; BIAcore X100; Tpm amine-coupled to CM5 chip; SMTNL1-TMB 0.12-10 uM injected; 20 mM HEPES pH 7.5, 100 mM KCl, 1 mM DTT, 0.005% Tween-20; 25 C; n = 3
[2] = target: smooth muscle tropomyosin, purified α/β heterodimer of chicken gizzard Tpm1.4 and Tpm2.1 (chicken); test: pull-down; Tpm covalently bound to CNBr-activated Sepharose (40 uL); 200 ug SMTNL1-TMB; 20 mM Tris-HCl pH 7.5, 0.1% beta-mercaptoethanol, 2 h at 4 C; washed with 150 mM NaCl; Coomassie stain, densitometry
[3] = target: SMTNL1-TMB, Tpm-binding region of smoothelin-like 1 protein (amino acids 195-459), unphosphorylated (UniProt Q99LM3); test: pull-down; competition, apo-CaM: SMTNL1-TMB premixed with Tpm (equimolar or other molar ratios) for 1 h at 4 C, then added to CaM-Sepharose with 1 mM EDTA

| pKd [1] | fold recovered against unphosphorylated SMTNL1-TMB [2] [fold] | percent reduction of SMTNL1-TMB binding to apo-CaM-Sepharose by equimolar Tpm [3] [%] | Substance |
| --- | --- | --- | --- |
| 5.52 | – | – | SMTNL1-TMB, Tpm-binding region of smoothelin-like 1 protein (amino acids 195-459), unphosphorylated (from UniProt Q99LM3 195-459) (domain or fragment) |
| 6.49 | 2 | – | SMTNL1-TMB phosphorylated at Ser301 with PKA (from UniProt Q99LM3 195-459) (domain or fragment) |
| – | – | 60 | smooth muscle tropomyosin, purified α/β heterodimer of chicken gizzard Tpm1.4 and Tpm2.1 (complex) |
